Target: α-synuclein (human, UniProt P37840 1-140)
Experiment: quartz crystal microbalance (QCM); α-synuclein (1 μM) immobilised by amine coupling; 2.5, 5, 10, 15, 20 nM AD(Cys) added; citrate buffer (pH 4.0); kon, koff from linear regression of kobs against concentration
Details: both partners purified

Kd: 5.04 nM
koff: 0.00295 s⁻¹
kon: 585000 M⁻¹ s⁻¹
B1: Hsp60 AD(Cys), isolated apical domain of human Hsp60 with cysteines at the N- and C-termini (domain or fragment)
chain: CGMKFDRGYISPYFINTSKGQKCEFQDAYVLLSEKKISSIQSIVPALEIANAHRKPLVIIAEDVDGEALSTLVLNRLKVGLQVVAVKAPGFGDNRKNQLKDMAIATGGAVFGEEGLTLNLEDVQPHDLGKVGEVIVTKDDAMLLKGKGDKAQIEKRIQEIIEQLDVTTSEYEKEKLNERLAKLSDC
modifications: disulfide bond between the two engineered cysteines at the N- and C-termini
notes: Cysteine introduced at the N-terminus; the primer ACCATGTGCGGCATGAAATTCGATCGCGGTT encodes Met-Cys-GMKFDRG; Apical domain of human Hsp60; Cysteine introduced at the C-terminus of the domain, before the His6 tag; the primer AGTGATTGCCACCACCACCACCACCACTGA encodes SD-Cys-HHHHHH-stop; A start Met precedes the N-terminal Cys in the construct; Monomer by gel filtration; also called …
